Assay results from patent US9102755B2, “Highly stabilized epidermal growth factor mutants” (PnP Biopharm Co., Ltd., priority 2013, dated 2015).

Columns and labels:
Type in all cases: physicochemical
[1] = Structure and thermal stability (Tm) by circular dichroism; conditions: 0.1 mg/ml; for Structure change: circular dichroism 190-250 nm, 20 mM sodium phosphate pH 5.5, 20° C., versus wild-type EGF; for Tm (melting temperature): circular dichroism, 20° C. to 95° C. at 1° C./min
Protocol: The structure and thermal stability of the purified EGF mutant were measured through a circular dichroism analysis using a J-810 spectrometer (JASCO). As the wild-type EGF, the purified EGF prepared in Example 2 was used. In order to analyze the structure, each EGF was dissolved in 20 mM sodium phosphate (pH 5.5) to be uniformly a final concentration of 0.1 mg/ml. And then, the dissolved EGF solution was added to 0.1 cm cell, and then its structure was analyzed under the conditions of, as 190 nm to 250 nm region, band width 1 nm, response 0.25 sec, data pitch 0.1 nm, scanning speed 20 nm/min, cell length 1 cm, accumulation 8 times, and a temperature of 20° C.
In order to analyze the thermal stability, a wavelength of 200 nm was determined through a comparison analysis of far-UV at the Tm (melting temperature) of 20° C. and 95° C., and progressed in a concentration of 0.1 mg/ml in 0.1 cm cell. As the conditions, it was measured at 20° C. to 95° C. under condition of 1° C./min.
The structure is changed at the band of about 195 nm when generating a folding-unfolding phenomenon. Using it, the melting temperature (Tm) was measured in the range of 20 to 95° C., and thus the accurate Tm value was analyzed. As a result, as for the structure change, most mutants had the similar structure as the wild-type EGF, and thus there were few changes. […] It can be confirmed that the thermal stabilities of M2 and M3 were improved by 87° C.

[2] = Circular dichroism after incubation at 60° C.; conditions: 0.3 mg/ml, 20 mM sodium phosphate pH 5.5, 60° C., five days
Protocol: The stabilities of wild-type EGF and mutants should be confirmed through being stored at room temperature for a long period of time, but there is a disadvantage in that the time is too long. Therefore, the incubation test was performed at extreme environment for a short period of time. 0.3 mg/ml of each of the wild-type EGF and mutants was dissolved in 20 mM sodium phosphate (pH 5.5), and then subjected to the incubation in a water bath of 60° C. The sampling was performed per 24 hours unit, and then centrifuged at 13000 rpm and 4° C. for 15 minutes to collect the supernatant. The supernatant was diluted with 20 mM sodium phosphate (pH 5.5), and its structure was measured by using a circular dichroism. And then, the supernatant was added to 0.1 cm cell, and its structure was analyzed under the conditions of, in a region of 190 nm to 250 nm, band width 1 nm, response 0.25 sec, data pitch 0.1 nm, scanning speed 20 nm/min, cell length 1 cm, accumulation 8 times, a temperature of 20° C. […] In order to easily confirm such a result, the graph as illustrated in FIG. 3 is used using the ratio of the signal value at a first day to the signal value at 200 nm that has the biggest difference of signals. Table. […] From such a result, it can be confirmed that the EGF mutants prepared in the present invention have excellent thermal stability and solubility.

[3] = Solubility of wild-type and mutant EGFs in 20 mM sodium phosphate (pH 5.5)
Protocol: 1 mg of the respective wild-type and mutant EGFs prepared was dissolved in 1 ml of 20 mM sodium phosphate (pH 5.5 that is the similarly pH environment as cosmetics). In order to remove undissolved EGF, the mixture thus obtained was centrifuged and then supernatant was obtained. The concentration of the supernatant thus obtained was measured by using a Bradford method and UV method.

Substance | Structure change [1] | Tm (melting temperature) [1] | Percentage to wild-type EGF (CD signal value at 200 nm) [2] | Solubility ([3]; 1 mg in 1 ml 20 mM sodium phosphate pH 5.5, supernatant, Bradford and UV method) | Solubility (Comparison with wild-type %) ([3]; 20 mM sodium phosphate pH 5.5, relative to wild-type EGF)
D-34-2: EGF mutant, 34th valine substituted with glutamic acid (SEQ ID NO: 76) (NSDSECPLSHDGYCLHDGVCMYIEALDKYACNCEVGYIGERCQYRDLKWWELR; not fully specified; Epidermal growth factor; UniProt P01133 971-1023, looked up, variant V34E) | No change | (76° C.) | 111.10% |  | 
D-35-7: EGF mutant, 35th valine substituted with aspartic acid (SEQ ID NO: 81) (CNCVDGYIGE) | No change | (76° C.) |  |  | 
D-35-6: EGF mutant, 35th valine substituted with glutamic acid (SEQ ID NO: 80) (CNCVEGYIGE) | No change | (76° C.) | 100.14% |  | 
D-38-11: EGF mutant, 38th isoleucine substituted with glutamic acid (SEQ ID NO: 85) (CNCVVGYEGE) | No change | (76° C.) |  |  | 
C-26-2: EGF mutant, 26th leucine substituted with serine (SEQ ID NO: 73) (NSDSECPLSHDGYCLHDGVCMYIEASDKYACNCVVGYIGERCQYRDLKWWELR; not fully specified; Epidermal growth factor; UniProt P01133 971-1023, looked up, variant L26S) | No change | (76° C.) |  |  | 
E-48-3: EGF mutant, 48th lysine substituted with arginine (SEQ ID NO: 90) (RCQYRDLRWWELR) | No change | (76° C.) |  |  | 
D-34-4: EGF mutant, 34th valine substituted with lysine (SEQ ID NO: 78) (CNCKVGYIGE) | No change | (76° C.) |  |  | 
D-35-5: EGF mutant, 35th valine substituted with serine (SEQ ID NO: 79) (CNCVSGYIGE) | No change | (76° C.) |  |  | 
B-19-4: EGF mutant, 19th valine substituted with aspartic acid (SEQ ID NO: 69) (NSDSECPLSHDGYCLHDGDCMYIEALDKYACNCVVGYIGERCQYRDLKWWELR; not fully specified; Epidermal growth factor; UniProt P01133 971-1023, looked up, variant V19D) | No change | (76° C.) |  |  | 
D-38-12: EGF mutant, 38th isoleucine substituted with aspartic acid (SEQ ID NO: 86) (CNCVVGYDGE) | No change | (76° C.) |  |  | 
D-34-1: EGF mutant, 34th valine substituted with serine (SEQ ID NO: 75) (NSDSECPLSHDGYCLHDGVCMYIEALDKYACNCSVGYIGERCQYRDLKWWELR; not fully specified; Epidermal growth factor; UniProt P01133 971-1023, looked up, variant V34S) | No change | (76° C.) |  |  | 
E-50-6: EGF mutant, 50th tryptophan substituted with glutamic acid (SEQ ID NO: 93) (RCQYRDLKWEELR) | No change | (76° C.) |  |  | 
A-8-2: EGF mutant, eighth leucine substituted with serine (SEQ ID NO: 63) (NSDSECPSSHDGYCLHDGVCMYIEALDKYACNCVVGYIGERCQYRDLKWWELR; not fully specified; Epidermal growth factor; UniProt P01133 971-1023, looked up, variant L8S) | No change | (76° C.) |  | 0.6991 mg/mL | 137%
A-4-1: EGF mutant, fourth serine substituted with glutamic acid (SEQ ID NO: 62) (NSDEECPLSHDGYCLHDGVCMYIEALDKYACNCVVGYIGERCQYRDLKWWELR; not fully specified; Epidermal growth factor; UniProt P01133 971-1023, looked up, variant S4E) | No change | (76° C.) |  |  | 
D-38-9: EGF mutant, 38th isoleucine substituted with serine (SEQ ID NO: 83) (CNCVVGYSGE) | No change | (76° C.) |  |  | 
B-19-5: EGF mutant, 19th valine substituted with lysine (SEQ ID NO: 70) (NSDSECPLSHDGYCLHDGKCMYIEALDKYACNCVVGYIGERCQYRDLKWWELR; not fully specified; Epidermal growth factor; UniProt P01133 971-1023, looked up, variant V19K) | No change | (76° C.) |  |  | 
E-50-5: EGF mutant, 50th tryptophan substituted with histidine (SEQ ID NO: 92) (RCQYRDLKWHELR) | No change | (76° C.) |  |  | 
A-8-3: EGF mutant, eighth leucine substituted with proline (SEQ ID NO: 64) (NSDSECPPSHDGYCLHDGVCMYIEALDKYACNCVVGYIGERCQYRDLKWWELR; not fully specified; Epidermal growth factor; UniProt P01133 971-1023, looked up, variant L8P) | No change | (76° C.) |  |  | 
E-50-4: EGF mutant, 50th tryptophan substituted with serine (SEQ ID NO: 91) (RCQYRDLKWSELR) | No change | (76° C.) |  |  | 
D-34-3: EGF mutant, 34th valine substituted with aspartic acid (SEQ ID NO: 77) (NSDSECPLSHDGYCLHDGVCMYIEALDKYACNCDVGYIGERCQYRDLKWWELR; not fully specified; Epidermal growth factor; UniProt P01133 971-1023, looked up, variant V34D) | No change | (76° C.) |  |  | 
D-35-8: EGF mutant, 35th valine substituted with lysine (SEQ ID NO: 82) (CNCVKGYIGE) | No change | (76° C.) |  |  | 
B-19-3: EGF mutant, 19th valine substituted with glutamic acid (SEQ ID NO: 68) (NSDSECPLSHDGYCLHDGECMYIEALDKYACNCVVGYIGERCQYRDLKWWELR; not fully specified; Epidermal growth factor; UniProt P01133 971-1023, looked up, variant V19E) | No change | (76° C.) | 84.22% |  | 
B-19-2: EGF mutant, 19th valine substituted with serine (SEQ ID NO: 67) (NSDSECPLSHDGYCLHDGSCMYIEALDKYACNCVVGYIGERCQYRDLKWWELR; not fully specified; Epidermal growth factor; UniProt P01133 971-1023, looked up, variant V19S) | No change | (76° C.) |  |  | 
